Measurements as given in PMC13050799.

Assays:
[1] = dual luciferase reporter, HEPM; settings: glycan lost; control: MEIS2-WT in shOGT HEPM cells
[2] = Western blot of MEIS2 ± MG132, HEPM; settings: glycan lost; control: DMSO
[3] = CHX chase, immunoblot, endogenous MEIS2 in HEPM; settings: control: DMSO
[4] = anti-MEIS2 or anti-HA IP, ubiquitin blot; settings: control: DMSO

B1: MEIS2: S237A (protein)
parent chain: MAQRYDELPHYGGMDGVGVPASMYGDPHAPRPIPPVHHLNHGPPLHATQHYGAHAPHPNVMPASMGSAVNDALKRDKDAIYGHPLFPLLALVFEKCELATCTPREPGVAGGDVCSSDSFNEDIAVFAKQVRAEKPLFSSNPELDNLMIQAIQVLRFHLLELEKVHELCDNFCHRYISCLKGKMPIDLVIDERDGSSKSDHEELSGSSTNLADHNPSSWRDHDDATSTHSAGTPGPSSGGHASQSGDNSSEQGDGLDNSVASPGTGDDDDPDKDKKRQKKRGIFPKVATNIMRAWLFQHLTHPYPSEEQKKQLAQDTGLTILQVNNWFINARRRIVQPMIDQSNRAGFLLDPSVSQGAAYSPEGQPMGSFVLDGQQHMGIRPAGLQSMPGDYVSQGGPMGMSMAQPSYTPPQMTPHPTQLRHGPPMHSYLPSHPHHPAMMMHGGPPTHPGMTMSAQSPTMLNSVDPNVGGQVMDIHAQ
[1]
  other: transcriptional activation of promoter: decreases

B2: MEIS2: OSMI-1 (protein)
parent chain: B1 parent chain
[2]
  expression_or_secretion: decreases
[3]; glycan lost
  degradation_or_half_life: decreases
[4]; glycan lost
  other: ubiquitination: increases

B3: MEIS2: Thiamet G (protein)
parent chain: B1 parent chain
[3]; glycan gained
  degradation_or_half_life: increases
[4]; glycan gained
  other: ubiquitination: decreases
